Positions of bridges follow the written chain, without caps; N, C: chain ends. Non-standard residues stand in square brackets, D forms with d. Trp(1-Me) = Cn1cc(C[C@H](N)C(=O)O)c2ccccc21; 1Nal = N[C@@H](Cc1cccc2ccccc12)C(=O)O; 2Nal = N[C@@H](Cc1ccc2ccccc2c1)C(=O)O; Sar = CNCC(=O)O
Assays:
[1] = target: T1, Human C3 (Complement tech cat #A113c) (human, UniProt P01024 23-1663); assay: cell-based or functional assay
[2] = target: T1, Human C3 (Complement tech cat #A113c); assay: SPR (Biacore T200), human C3 immobilised, peptide injected, 1:1 fit
In short: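 Human C3 amine-coupled on CM5 chips to about 3000 RU. Multi-cycle runs on Biacore T200 at 25° C: peptides at 6-8 rising concentrations, 60-120 s at 30 µL/min in 10 mM Tris pH 7.4, 150 mM NaCl, 0.05% Tween20, dissociation up to 10 min; 3 M MgCl2 regeneration. Kd derived.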

T1 sequence (P01024 23-1663 limits assumed): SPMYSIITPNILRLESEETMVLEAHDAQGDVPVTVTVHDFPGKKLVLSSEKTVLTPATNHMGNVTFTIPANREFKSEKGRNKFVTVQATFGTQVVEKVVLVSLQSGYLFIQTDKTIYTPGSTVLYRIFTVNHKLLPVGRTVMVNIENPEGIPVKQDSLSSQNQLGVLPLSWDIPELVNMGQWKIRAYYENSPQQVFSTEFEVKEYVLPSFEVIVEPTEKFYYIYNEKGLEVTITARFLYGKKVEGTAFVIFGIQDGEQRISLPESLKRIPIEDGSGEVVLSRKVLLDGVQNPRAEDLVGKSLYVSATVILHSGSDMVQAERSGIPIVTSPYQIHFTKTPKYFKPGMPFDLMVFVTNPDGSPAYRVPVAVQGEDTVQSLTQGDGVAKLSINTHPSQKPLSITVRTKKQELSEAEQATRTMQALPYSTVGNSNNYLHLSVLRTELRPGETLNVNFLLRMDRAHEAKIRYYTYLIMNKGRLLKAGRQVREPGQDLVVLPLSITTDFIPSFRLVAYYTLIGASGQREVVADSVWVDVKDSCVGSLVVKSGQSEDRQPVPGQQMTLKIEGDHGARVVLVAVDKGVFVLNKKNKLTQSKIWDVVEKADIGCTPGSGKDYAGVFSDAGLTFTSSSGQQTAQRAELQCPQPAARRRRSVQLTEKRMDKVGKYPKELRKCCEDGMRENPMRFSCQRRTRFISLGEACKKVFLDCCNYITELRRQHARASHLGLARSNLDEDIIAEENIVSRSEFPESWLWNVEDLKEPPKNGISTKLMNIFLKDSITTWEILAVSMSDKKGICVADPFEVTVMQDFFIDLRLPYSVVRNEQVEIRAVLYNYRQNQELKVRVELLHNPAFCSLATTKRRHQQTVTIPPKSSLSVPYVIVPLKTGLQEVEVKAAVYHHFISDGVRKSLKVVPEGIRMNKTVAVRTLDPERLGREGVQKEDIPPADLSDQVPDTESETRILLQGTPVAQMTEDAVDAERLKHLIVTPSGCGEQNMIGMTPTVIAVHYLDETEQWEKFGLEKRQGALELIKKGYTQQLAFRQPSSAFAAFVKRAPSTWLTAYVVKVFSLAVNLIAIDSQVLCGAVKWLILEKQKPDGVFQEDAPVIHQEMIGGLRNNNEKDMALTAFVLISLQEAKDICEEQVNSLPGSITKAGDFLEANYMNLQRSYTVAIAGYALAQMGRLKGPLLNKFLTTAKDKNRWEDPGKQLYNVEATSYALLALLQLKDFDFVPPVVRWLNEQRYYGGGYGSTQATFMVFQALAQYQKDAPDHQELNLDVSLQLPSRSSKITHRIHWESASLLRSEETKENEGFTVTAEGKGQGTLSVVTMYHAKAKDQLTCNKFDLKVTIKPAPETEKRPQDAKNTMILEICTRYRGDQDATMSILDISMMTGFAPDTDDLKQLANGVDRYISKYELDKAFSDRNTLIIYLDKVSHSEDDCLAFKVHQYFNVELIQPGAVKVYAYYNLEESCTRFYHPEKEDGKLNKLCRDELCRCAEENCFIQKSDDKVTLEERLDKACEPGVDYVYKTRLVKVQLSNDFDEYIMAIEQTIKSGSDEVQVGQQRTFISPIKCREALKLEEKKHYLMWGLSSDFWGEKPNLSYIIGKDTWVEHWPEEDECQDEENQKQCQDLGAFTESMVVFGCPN

Kd [2]	Binder	inhibition of hemolysis IC50 [1]
4.3 nM	Ac-FCI[1Nal]QDWGEHRCTGAES-NH2 (disulfide 2-12; SMILES CC[C@H](C)[C@@H]1NC(=O)[C@@H](NC(=O)[C@H](Cc2ccccc2)NC(C)=O)CSSC[C@@H](C(=O)N[C@H](C(=O)NCC(=O)N[C@@H](C)C(=O)N[C@@H](CCC(=O)O)C(=O)N[C@@H](CO)C(N)=O)[C@@H](C)O)NC(=O)[C@H](CCCNC(=N)N)NC(=O)[C@H](Cc2c[nH]cn2)NC(=O)[C@H](CCC(=O)O)NC(=O)CNC(=O)[C@H](Cc2c[nH]c3ccccc23)NC(=O)[C@H](CC(=O)O)NC(=O)[C@H](CCC(N)=O)NC(=O)[C@H](Cc2cccc3ccccc23)NC1=O) [Compound 63]	< 100 nM
9.7 nM	Ac-SE[Sar]CI[Trp(1-Me)]QDWGEHRC[Sar]EA-NH2 (disulfide 4-14; SMILES CC[C@H](C)[C@@H]1NC(=O)[C@@H](NC(=O)CN(C)C(=O)[C@H](CCC(=O)O)NC(=O)[C@H](CO)NC(C)=O)CSSC[C@@H](C(=O)N(C)CC(=O)N[C@@H](CCC(=O)O)C(=O)N[C@@H](C)C(N)=O)NC(=O)[C@H](CCCNC(=N)N)NC(=O)[C@H](Cc2c[nH]cn2)NC(=O)[C@H](CCC(=O)O)NC(=O)CNC(=O)[C@H](Cc2c[nH]c3ccccc23)NC(=O)[C@H](CC(=O)O)NC(=O)[C@H](CCC(N)=O)NC(=O)[C@H](Cc2cn(C)c3ccccc23)NC1=O) [Compound 81]	< 100 nM
13 nM	Ac-EGSAICI[2Nal]QDWGEHRC[Sar]E-NH2 (disulfide 6-16; SMILES CC[C@H](C)[C@H](NC(=O)[C@H](C)NC(=O)[C@H](CO)NC(=O)CNC(=O)[C@H](CCC(=O)O)NC(C)=O)C(=O)N[C@H]1CSSC[C@@H](C(=O)N(C)CC(=O)N[C@@H](CCC(=O)O)C(N)=O)NC(=O)[C@H](CCCNC(=N)N)NC(=O)[C@H](Cc2c[nH]cn2)NC(=O)[C@H](CCC(=O)O)NC(=O)CNC(=O)[C@H](Cc2c[nH]c3ccccc23)NC(=O)[C@H](CC(=O)O)NC(=O)[C@H](CCC(N)=O)NC(=O)[C@H](Cc2ccc3ccccc3c2)NC(=O)[C@H]([C@@H](C)CC)NC1=O) [Compound 50]	< 100 nM
3.2 nM	Ac-EGSAICI[Trp(1-Me)]QDWGEHRC[Sar]E-NH2 (disulfide 6-16; SMILES CC[C@H](C)[C@H](NC(=O)[C@H](C)NC(=O)[C@H](CO)NC(=O)CNC(=O)[C@H](CCC(=O)O)NC(C)=O)C(=O)N[C@H]1CSSC[C@@H](C(=O)N(C)CC(=O)N[C@@H](CCC(=O)O)C(N)=O)NC(=O)[C@H](CCCNC(=N)N)NC(=O)[C@H](Cc2c[nH]cn2)NC(=O)[C@H](CCC(=O)O)NC(=O)CNC(=O)[C@H](Cc2c[nH]c3ccccc23)NC(=O)[C@H](CC(=O)O)NC(=O)[C@H](CCC(N)=O)NC(=O)[C@H](Cc2cn(C)c3ccccc23)NC(=O)[C@H]([C@@H](C)CC)NC1=O) [Compound 49]	< 100 nM
0.3 nM	H-[dY]FCI[Trp(1-Me)]QDW[Sar]EHRCTGAES-NH2 (disulfide 3-13; SMILES CC[C@H](C)[C@@H]1NC(=O)[C@@H](NC(=O)[C@H](Cc2ccccc2)NC(=O)[C@H](N)Cc2ccc(O)cc2)CSSC[C@@H](C(=O)N[C@H](C(=O)NCC(=O)N[C@@H](C)C(=O)N[C@@H](CCC(=O)O)C(=O)N[C@@H](CO)C(N)=O)[C@@H](C)O)NC(=O)[C@H](CCCNC(=N)N)NC(=O)[C@H](Cc2c[nH]cn2)NC(=O)[C@H](CCC(=O)O)NC(=O)CN(C)C(=O)[C@H](Cc2c[nH]c3ccccc23)NC(=O)[C@H](CC(=O)O)NC(=O)[C@H](CCC(N)=O)NC(=O)[C@H](Cc2cn(C)c3ccccc23)NC1=O) [Compound 73]	< 100 nM
5.4 nM	Ac-SE[Sar]CI[Trp(1-Me)]QDWGEHRCTEA-NH2 (disulfide 4-14; SMILES CC[C@H](C)[C@@H]1NC(=O)[C@@H](NC(=O)CN(C)C(=O)[C@H](CCC(=O)O)NC(=O)[C@H](CO)NC(C)=O)CSSC[C@@H](C(=O)N[C@H](C(=O)N[C@@H](CCC(=O)O)C(=O)N[C@@H](C)C(N)=O)[C@@H](C)O)NC(=O)[C@H](CCCNC(=N)N)NC(=O)[C@H](Cc2c[nH]cn2)NC(=O)[C@H](CCC(=O)O)NC(=O)CNC(=O)[C@H](Cc2c[nH]c3ccccc23)NC(=O)[C@H](CC(=O)O)NC(=O)[C@H](CCC(N)=O)NC(=O)[C@H](Cc2cn(C)c3ccccc23)NC1=O) [Compound 82]	< 100 nM
0.68 nM	Ac-SEFCI[Trp(1-Me)]QDWGEHRCTGAES-NH2 (disulfide 4-14; SMILES CC[C@H](C)[C@@H]1NC(=O)[C@@H](NC(=O)[C@H](Cc2ccccc2)NC(=O)[C@H](CCC(=O)O)NC(=O)[C@H](CO)NC(C)=O)CSSC[C@@H](C(=O)N[C@H](C(=O)NCC(=O)N[C@@H](C)C(=O)N[C@@H](CCC(=O)O)C(=O)N[C@@H](CO)C(N)=O)[C@@H](C)O)NC(=O)[C@H](CCCNC(=N)N)NC(=O)[C@H](Cc2c[nH]cn2)NC(=O)[C@H](CCC(=O)O)NC(=O)CNC(=O)[C@H](Cc2c[nH]c3ccccc23)NC(=O)[C@H](CC(=O)O)NC(=O)[C@H](CCC(N)=O)NC(=O)[C@H](Cc2cn(C)c3ccccc23)NC1=O) [Compound 67]	< 100 nM
1.5 nM	Ac-SEFCI[Trp(1-Me)]QDWGEHRC[Sar]EA-NH2 (disulfide 4-14; SMILES CC[C@H](C)[C@@H]1NC(=O)[C@@H](NC(=O)[C@H](Cc2ccccc2)NC(=O)[C@H](CCC(=O)O)NC(=O)[C@H](CO)NC(C)=O)CSSC[C@@H](C(=O)N(C)CC(=O)N[C@@H](CCC(=O)O)C(=O)N[C@@H](C)C(N)=O)NC(=O)[C@H](CCCNC(=N)N)NC(=O)[C@H](Cc2c[nH]cn2)NC(=O)[C@H](CCC(=O)O)NC(=O)CNC(=O)[C@H](Cc2c[nH]c3ccccc23)NC(=O)[C@H](CC(=O)O)NC(=O)[C@H](CCC(N)=O)NC(=O)[C@H](Cc2cn(C)c3ccccc23)NC1=O) [Compound 75]	< 100 nM
2.6 nM	Ac-SEFCI[Trp(1-Me)]QDWGEHKC[Sar]EA-NH2 (disulfide 4-14; SMILES CC[C@H](C)[C@@H]1NC(=O)[C@@H](NC(=O)[C@H](Cc2ccccc2)NC(=O)[C@H](CCC(=O)O)NC(=O)[C@H](CO)NC(C)=O)CSSC[C@@H](C(=O)N(C)CC(=O)N[C@@H](CCC(=O)O)C(=O)N[C@@H](C)C(N)=O)NC(=O)[C@H](CCCCN)NC(=O)[C@H](Cc2c[nH]cn2)NC(=O)[C@H](CCC(=O)O)NC(=O)CNC(=O)[C@H](Cc2c[nH]c3ccccc23)NC(=O)[C@H](CC(=O)O)NC(=O)[C@H](CCC(N)=O)NC(=O)[C@H](Cc2cn(C)c3ccccc23)NC1=O) [Compound 86]	< 100 nM
